Laboratory results from article PMC11232276.

What was measured:
[1] = target: α-synuclein oligomers (human); experiment: flow-induced dispersion analysis
[2] = target: wildtype (WT) α-synuclein fibrils (human) (UniProt P37840); experiment: flow-induced dispersion analysis
[3] = target: wildtype (WT) α-synuclein fibrils (human) (UniProt P37840); experiment: native gel or EMSA
[4] = target: wildtype (WT) α-synuclein fibrils (human) (UniProt P37840); experiment: SPR

Row | Kd [1] | Kd [2] | percent of soluble, unbound BRICHOS [3] | apparent KD, strong binding of the two-phase model [4] | apparent KD, weak binding of the two-phase model [4] | Substance
1 | 0.0782 µM | 2.3 µM | – | – | – | BRICHOS-Alexa488 (rh Bri2 BRICHOS R221E labelled with Alexa-488) (from UniProt Q9Y287 113-231) (domain or fragment)
2 | – | – | 90.6% | 0.022 µM | 350 µM | recombinant human (rh) Bri2 BRICHOS R221E monomer (from UniProt Q9Y287 113-231) (domain or fragment)
